Key:
Assay in all cases: Kinase Profiling Assay
Assay type in all cases: biochemical
Details in all cases: 100 μM
[1] = molecular target: MELK (h) (Homo sapiens, UniProt Q14680)
In short: (§1)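 In this 266-kinase specificity panel, every measurement was duplicated. Transfer of labeled phosphate from ATP to a cationic substrate was quantified after the substrate adhered to an anionic filter membrane and was scintillation-counted, then related to a full-activity control.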

[2] = molecular target: Src(T341M) (h) (Homo sapiens, UniProt P12931, T341M)
In short: as §1

[3] = molecular target: T1, IRAK4 (h) (Homo sapiens, UniProt Q9NWZ3)
T1 construct: purchased Millipore
T1 sequence (Q9NWZ3 1-460): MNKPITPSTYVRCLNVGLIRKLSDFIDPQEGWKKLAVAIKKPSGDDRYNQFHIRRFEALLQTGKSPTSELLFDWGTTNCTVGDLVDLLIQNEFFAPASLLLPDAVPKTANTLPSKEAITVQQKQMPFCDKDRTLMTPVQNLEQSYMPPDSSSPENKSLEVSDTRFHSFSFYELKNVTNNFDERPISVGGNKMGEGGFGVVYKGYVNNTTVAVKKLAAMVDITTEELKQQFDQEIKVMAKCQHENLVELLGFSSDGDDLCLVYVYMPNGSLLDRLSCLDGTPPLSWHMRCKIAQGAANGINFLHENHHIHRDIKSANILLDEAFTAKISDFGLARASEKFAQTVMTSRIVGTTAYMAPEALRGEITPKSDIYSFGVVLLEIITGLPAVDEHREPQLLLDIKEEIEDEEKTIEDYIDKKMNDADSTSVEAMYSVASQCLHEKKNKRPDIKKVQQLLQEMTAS
In short: as §1

[4] = molecular target: Fes (h) (Homo sapiens, UniProt P07332)
In short: as §1

[5] = molecular target: T2, MSK2 (h) (Homo sapiens, UniProt O75676)
T2 construct: purchased Millipore
In short: as §1

[6] = molecular target: T3, cSRC (h) (Homo sapiens, UniProt P12931)
T3 construct: purchased Millipore
In short: as §1

[7] = molecular target: ACK1 (h) (Homo sapiens, UniProt Q07912)
In short: as §1

[8] = molecular target: T4, ASK1 (h) (Homo sapiens, UniProt Q99683)
T4 sequence (Q99683 1-1374): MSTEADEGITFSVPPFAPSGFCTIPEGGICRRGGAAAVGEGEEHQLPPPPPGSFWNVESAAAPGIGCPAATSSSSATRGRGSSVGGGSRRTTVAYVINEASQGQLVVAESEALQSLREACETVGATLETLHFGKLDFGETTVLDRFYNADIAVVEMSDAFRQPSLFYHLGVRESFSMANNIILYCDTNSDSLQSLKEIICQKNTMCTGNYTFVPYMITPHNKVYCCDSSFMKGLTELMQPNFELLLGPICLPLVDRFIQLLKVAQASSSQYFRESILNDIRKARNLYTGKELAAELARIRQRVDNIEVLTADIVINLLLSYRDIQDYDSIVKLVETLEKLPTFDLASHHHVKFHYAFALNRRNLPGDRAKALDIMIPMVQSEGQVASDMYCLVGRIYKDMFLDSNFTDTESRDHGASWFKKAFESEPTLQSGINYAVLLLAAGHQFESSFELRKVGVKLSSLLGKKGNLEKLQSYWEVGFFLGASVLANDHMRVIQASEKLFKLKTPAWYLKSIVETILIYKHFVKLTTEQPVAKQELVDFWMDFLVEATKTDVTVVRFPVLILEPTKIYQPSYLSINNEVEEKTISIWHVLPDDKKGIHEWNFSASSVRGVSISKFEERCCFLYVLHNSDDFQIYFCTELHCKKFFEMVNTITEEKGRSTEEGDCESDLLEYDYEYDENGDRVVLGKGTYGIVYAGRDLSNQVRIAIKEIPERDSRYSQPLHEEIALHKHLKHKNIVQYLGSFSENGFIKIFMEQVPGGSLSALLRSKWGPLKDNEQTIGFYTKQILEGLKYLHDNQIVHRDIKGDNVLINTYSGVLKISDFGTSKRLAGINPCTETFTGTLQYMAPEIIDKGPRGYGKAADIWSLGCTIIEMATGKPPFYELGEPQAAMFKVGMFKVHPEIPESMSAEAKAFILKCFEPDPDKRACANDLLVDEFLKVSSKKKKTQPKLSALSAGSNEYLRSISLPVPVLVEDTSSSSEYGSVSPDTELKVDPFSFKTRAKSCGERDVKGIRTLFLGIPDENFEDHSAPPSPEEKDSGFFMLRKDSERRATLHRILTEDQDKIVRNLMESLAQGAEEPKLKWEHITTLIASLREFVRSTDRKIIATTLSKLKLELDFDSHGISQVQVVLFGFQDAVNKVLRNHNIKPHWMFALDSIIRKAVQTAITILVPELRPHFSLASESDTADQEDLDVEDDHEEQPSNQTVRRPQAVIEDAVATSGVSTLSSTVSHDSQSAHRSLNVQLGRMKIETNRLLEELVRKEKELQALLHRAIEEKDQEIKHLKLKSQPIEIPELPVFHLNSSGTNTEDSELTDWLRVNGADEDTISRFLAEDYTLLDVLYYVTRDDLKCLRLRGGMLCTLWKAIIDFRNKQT
In short: as §1

[9] = molecular target: AMPKα2 (h) (Homo sapiens, UniProt P54646)
In short: as §1

[10] = molecular target: MARK1 (h) (Homo sapiens, UniProt Q9P0L2)
In short: as §1

Chain of MELK (h) (Q14680 whole entry): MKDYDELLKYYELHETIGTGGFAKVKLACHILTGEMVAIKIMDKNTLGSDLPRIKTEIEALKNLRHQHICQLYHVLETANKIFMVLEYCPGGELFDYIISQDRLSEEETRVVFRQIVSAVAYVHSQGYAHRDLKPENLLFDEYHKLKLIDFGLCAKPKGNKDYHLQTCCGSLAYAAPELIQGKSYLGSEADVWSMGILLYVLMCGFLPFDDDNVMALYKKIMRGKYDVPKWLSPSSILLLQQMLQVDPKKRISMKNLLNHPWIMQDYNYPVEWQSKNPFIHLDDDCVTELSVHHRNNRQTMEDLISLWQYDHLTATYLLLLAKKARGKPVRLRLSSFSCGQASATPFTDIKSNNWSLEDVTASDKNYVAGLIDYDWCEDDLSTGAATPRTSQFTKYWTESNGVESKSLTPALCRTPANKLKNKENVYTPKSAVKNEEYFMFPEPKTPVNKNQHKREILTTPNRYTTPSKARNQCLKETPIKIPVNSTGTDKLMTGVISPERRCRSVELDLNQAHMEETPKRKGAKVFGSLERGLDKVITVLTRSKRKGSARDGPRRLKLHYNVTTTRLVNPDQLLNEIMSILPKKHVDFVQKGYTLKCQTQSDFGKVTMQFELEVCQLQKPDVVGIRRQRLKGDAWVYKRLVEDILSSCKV
Chain of Fes (h) (P07332 whole entry): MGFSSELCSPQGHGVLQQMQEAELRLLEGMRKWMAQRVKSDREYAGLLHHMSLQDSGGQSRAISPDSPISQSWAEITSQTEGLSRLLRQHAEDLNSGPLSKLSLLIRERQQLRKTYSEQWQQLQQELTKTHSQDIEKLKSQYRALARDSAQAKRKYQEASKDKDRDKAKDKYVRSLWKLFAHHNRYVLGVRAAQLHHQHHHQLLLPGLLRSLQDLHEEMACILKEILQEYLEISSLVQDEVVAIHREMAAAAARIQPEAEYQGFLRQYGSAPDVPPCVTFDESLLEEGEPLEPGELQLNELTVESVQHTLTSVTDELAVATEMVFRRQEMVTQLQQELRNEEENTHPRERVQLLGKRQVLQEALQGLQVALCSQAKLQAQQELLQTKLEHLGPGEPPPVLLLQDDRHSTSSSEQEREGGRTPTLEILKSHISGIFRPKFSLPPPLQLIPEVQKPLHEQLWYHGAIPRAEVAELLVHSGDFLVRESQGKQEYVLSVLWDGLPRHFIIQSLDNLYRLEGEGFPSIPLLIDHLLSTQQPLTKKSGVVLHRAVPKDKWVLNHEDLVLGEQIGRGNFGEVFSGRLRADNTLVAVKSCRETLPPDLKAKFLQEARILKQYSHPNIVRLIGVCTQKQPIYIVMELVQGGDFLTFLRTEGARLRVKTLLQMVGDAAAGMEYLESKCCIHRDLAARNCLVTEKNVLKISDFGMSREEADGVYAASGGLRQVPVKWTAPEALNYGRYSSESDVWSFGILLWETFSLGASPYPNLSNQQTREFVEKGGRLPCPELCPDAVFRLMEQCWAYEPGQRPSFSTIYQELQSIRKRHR
Chain of AMPKα2 (h) (P54646 whole entry): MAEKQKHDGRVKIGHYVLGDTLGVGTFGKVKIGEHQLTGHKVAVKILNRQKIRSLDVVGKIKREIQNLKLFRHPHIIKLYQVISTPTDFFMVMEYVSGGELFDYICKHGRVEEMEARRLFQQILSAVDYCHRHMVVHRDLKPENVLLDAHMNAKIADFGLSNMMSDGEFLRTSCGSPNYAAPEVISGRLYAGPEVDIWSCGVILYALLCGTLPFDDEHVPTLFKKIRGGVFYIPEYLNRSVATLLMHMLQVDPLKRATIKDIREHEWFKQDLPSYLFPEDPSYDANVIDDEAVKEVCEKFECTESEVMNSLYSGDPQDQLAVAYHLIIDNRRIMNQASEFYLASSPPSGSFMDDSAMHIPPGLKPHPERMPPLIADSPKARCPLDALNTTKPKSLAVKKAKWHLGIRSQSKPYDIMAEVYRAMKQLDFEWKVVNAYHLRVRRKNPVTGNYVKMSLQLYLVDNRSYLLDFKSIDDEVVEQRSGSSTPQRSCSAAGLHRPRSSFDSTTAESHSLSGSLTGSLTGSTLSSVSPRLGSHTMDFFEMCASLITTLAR
Chain of AMPKα2 (h) (Q9Y478 whole entry partner): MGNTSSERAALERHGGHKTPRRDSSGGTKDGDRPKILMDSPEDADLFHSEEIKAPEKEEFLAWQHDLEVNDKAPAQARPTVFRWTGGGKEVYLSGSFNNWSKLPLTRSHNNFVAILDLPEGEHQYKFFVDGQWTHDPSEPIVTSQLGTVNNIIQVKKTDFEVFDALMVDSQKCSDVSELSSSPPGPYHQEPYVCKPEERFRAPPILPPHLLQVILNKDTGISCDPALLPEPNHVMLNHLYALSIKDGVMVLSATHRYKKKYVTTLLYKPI
Chain of AMPKα2 (h) (P54619 whole entry partner): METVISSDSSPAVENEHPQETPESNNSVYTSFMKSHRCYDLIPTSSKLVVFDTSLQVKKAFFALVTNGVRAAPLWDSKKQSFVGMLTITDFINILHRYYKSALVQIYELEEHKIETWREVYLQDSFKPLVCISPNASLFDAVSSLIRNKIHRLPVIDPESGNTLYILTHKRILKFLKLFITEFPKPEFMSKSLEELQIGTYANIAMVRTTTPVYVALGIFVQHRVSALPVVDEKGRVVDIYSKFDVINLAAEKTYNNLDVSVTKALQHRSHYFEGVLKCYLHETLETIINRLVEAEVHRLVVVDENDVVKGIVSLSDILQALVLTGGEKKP
T2 sequence (O75676 whole entry): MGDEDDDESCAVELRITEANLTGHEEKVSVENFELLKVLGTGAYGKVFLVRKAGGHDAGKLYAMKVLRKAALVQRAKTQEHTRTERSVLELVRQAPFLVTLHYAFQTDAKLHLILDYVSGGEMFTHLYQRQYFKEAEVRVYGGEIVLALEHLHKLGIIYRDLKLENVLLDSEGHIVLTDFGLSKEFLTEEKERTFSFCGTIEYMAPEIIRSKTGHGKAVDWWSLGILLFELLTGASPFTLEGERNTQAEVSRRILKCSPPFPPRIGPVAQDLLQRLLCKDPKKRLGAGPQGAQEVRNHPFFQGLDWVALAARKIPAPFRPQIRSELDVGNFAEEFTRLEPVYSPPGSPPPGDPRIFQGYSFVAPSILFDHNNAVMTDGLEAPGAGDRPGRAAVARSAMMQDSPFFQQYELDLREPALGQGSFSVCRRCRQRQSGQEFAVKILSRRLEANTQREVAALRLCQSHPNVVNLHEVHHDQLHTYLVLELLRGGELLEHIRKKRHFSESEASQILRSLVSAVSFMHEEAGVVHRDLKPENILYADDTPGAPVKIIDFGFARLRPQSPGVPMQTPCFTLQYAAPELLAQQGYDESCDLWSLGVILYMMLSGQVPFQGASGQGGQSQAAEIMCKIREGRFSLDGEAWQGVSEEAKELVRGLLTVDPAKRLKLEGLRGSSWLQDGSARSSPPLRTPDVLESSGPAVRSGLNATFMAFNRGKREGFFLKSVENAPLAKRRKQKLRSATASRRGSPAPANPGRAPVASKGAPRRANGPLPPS
Chain of ACK1 (h) (Q07912 whole entry): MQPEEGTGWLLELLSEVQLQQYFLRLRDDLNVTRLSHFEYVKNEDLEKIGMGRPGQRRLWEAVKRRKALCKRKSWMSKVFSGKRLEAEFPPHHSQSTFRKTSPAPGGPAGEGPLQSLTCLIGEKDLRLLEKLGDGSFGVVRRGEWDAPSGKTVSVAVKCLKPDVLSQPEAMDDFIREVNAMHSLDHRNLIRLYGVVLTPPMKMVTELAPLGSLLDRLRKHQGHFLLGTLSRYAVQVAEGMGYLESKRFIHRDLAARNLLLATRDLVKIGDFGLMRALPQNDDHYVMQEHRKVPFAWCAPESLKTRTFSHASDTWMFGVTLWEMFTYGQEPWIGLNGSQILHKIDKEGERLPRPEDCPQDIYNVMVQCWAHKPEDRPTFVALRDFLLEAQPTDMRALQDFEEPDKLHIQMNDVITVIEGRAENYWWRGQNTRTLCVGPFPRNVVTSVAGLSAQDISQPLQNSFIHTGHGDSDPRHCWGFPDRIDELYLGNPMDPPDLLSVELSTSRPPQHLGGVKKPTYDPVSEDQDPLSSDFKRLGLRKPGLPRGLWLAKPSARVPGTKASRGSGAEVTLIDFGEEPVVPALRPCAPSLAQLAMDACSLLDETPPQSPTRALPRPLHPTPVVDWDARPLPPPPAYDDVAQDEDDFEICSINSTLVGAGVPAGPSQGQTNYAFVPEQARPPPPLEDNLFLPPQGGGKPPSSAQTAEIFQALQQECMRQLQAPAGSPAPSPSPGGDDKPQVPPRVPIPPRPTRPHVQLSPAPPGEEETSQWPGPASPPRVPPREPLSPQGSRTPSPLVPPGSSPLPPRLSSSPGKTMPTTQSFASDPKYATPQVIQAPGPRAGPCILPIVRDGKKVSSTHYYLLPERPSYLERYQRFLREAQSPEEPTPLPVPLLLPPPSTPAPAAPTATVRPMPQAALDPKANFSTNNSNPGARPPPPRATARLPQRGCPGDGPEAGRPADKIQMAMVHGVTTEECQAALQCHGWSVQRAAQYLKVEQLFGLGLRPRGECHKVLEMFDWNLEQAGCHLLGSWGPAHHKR

YARAAARQARAKALNRQLGVA (Mammalian) [MMI-0200]
% activity [1]: 59%
% activity [2]: 56%
% activity [3]: 110%
% activity [4]: 74%
% activity [5]: 88%
% activity [6]: 32%
% activity [7]: 97%
% activity [8]: 101%
% activity [9]: 88%

HRRIKAWLKKIKALARQLGVAA (Mammalian) [MMI-0500]
% activity [1]: 0%
% activity [2]: 59%
% activity [3]: 3%
% activity [10]: 110%
% activity [4]: 23%
% activity [5]: 14%
% activity [6]: 30%
% activity [7]: 64%
% activity [8]: −4%
% activity [9]: 9%

FAKLAARLYRKALARQLGVAA [MMI-0300]
% activity [1]: 16%
% activity [2]: 70%
% activity [3]: 59%
% activity [10]: 132%
% activity [4]: 20%
% activity [5]: 56%
% activity [6]: 26%
% activity [8]: 80%
% activity [9]: 54%

KAFAKLAARLYRKALARQLGVAA [MMI-0400]
% activity [1]: 17%
% activity [2]: 76%
% activity [3]: 59%
% activity [10]: 120%
% activity [4]: 16%
% activity [5]: 52%
% activity [6]: 14%
% activity [7]: 95%
% activity [8]: 69%
% activity [9]: 58%

From patent US10500249B2, “Compositions and methods for preventing or treating diseases, conditions, or processes characterized by aberrant fibroblast proliferation and extracellular matrix deposition” (MOERAE MATRIX, INC., priority 2014, dated 2019)
